± gives the standard deviation of the averaged measurements.
Assay: total protein half-life in vivo (active degradation + dilution); higher = more stable protein
[1] = E. coli NCM3722 delta-clpP delta-lon delta-hslV, growth: N-lim chemostat, doubling time 6 h
[2] = E. coli NCM3722 delta-clpP, growth: N-lim chemostat, doubling time 6 h
[3] = E. coli NCM3722 delta-hslV, growth: N-lim chemostat, doubling time 6 h
[4] = E. coli NCM3722 delta-lon, growth: N-lim chemostat, doubling time 6 h
[5] = E. coli NCM3722 delta-smpB, growth: N-lim chemostat, doubling time 6 h
[6] = wild type E. coli NCM3722, growth: C-lim chemostat, doubling time 3 h
[7] = wild type E. coli NCM3722, growth: C-lim chemostat, doubling time 6 h
[8] = wild type E. coli NCM3722, growth: C-lim chemostat, doubling time 12 h
[9] = wild type E. coli NCM3722, growth: N-lim chemostat, doubling time 6 h
[10] = wild type E. coli NCM3722, growth: N-lim chemostat, doubling time 12 h
[11] = wild type E. coli NCM3722, growth: P-lim chemostat, doubling time 6 h
[12] = wild type E. coli NCM3722, growth: P-lim chemostat, doubling time 12 h

Row | Sequence | total protein half-life in vivo [1] [h] | total protein half-life in vivo [2] [h] | total protein half-life in vivo [3] [h] | total protein half-life in vivo [4] [h] | total protein half-life in vivo [5] [h] | total protein half-life in vivo [6] [h] | total protein half-life in vivo [7] [h] | total protein half-life in vivo [8] [h] | total protein half-life in vivo [9] [h] | total protein half-life in vivo [10] [h] | total protein half-life in vivo [11] [h] | total protein half-life in vivo [12] [h]
1 | MTIKNVICDIDGVLMHDNVAVPGAAEFLHGIMDKGLPLVLLTNYPSQTGQDLANRFATAGVDVPDSVFYTSAMATADFLRRQEGKKAYVVGEGALIHELYKAGFTITDVNPDFVIVGETRSYNWDMMHKAAYFVANGARFIATNPDTHGRGFYPACGALCAGIEKISGRKPFYVGKPSPWIIRAALNKMQAHSEETVIVGDNLRTDILAGFQAGLETILVLSGVSSLDDIDSMPFRPSWIYPSVAEIDVI [P0AF24] | 6.46 ± 0.48 | 5.48 ± 0.16 | 5.64 ± 0.15 | 5.88 ± 0.64 | 5.58 ± 0.17 | 3.14 ± 0.041 | 5.71 ± 0.07 | 11.6 ± 1.2 | 5.465 ± 0.045 | 9.89 ± 0.17 | 6 ± 0.44 | 10.4 ± 2.1
2 | MTILNHTLGFPRVGLRRELKKAQESYWAGNSTREELLAVGRELRARHWDQQKQAGIDLLPVGDFAWYDHVLTTSLLLGNVPARHQNKDGSVDIDTLFRIGRGRAPTGEPAAAAEMTKWFNTNYHYMVPEFVKGQQFKLTWTQLLDEVDEALALGHKVKPVLLGPVTWLWLGKVKGEQFDRLSLLNDILPVYQQVLAELAKRGIEWVQIDEPALVLELPQAWLDAYKPAYDALQGQVKLLLTTYFEGVTPNLDTITALPVQGLHVDLVHGKDDVAELHKRLPSDWLLSAGLINGRNVWRADLTEKYAQIKDIVGKRDLWVASSCSLLHSPIDLSVETRLDAEVKSWFAFALQKCHELALLRDALNSGDTAALAEWSAPIQARRHSTRVHNPAVEKRLAAITAQDSQRANVYEVRAEAQRARFKLPAWPTTTIGSFPQTTEIRTLRLDFKKGNLDANNYRTGIAEHIKQAIVEQERLGLDVLVHGEAERNDMVEYFGEHLDGFVFTQNGWVQSYGSRCVKPPIVIGDISRPAPITVEWAKYAQSLTDKPVKGMLTGPVTILCWSFPREDVSRETIAKQIALALRDEVADLEAAGIGIIQIDEPALREGLPLRRSDWDAYLQWGVEAFRINAAVAKDDTQIHTHMCYCEFNDIMDSIAALDADVITIETSRSDMELLESFEEFDYPNEIGPGVYDIHSPNVPSVEWIEALLKKAAKRIPAERLWVNPDCGLKTRGWPETRAALANMVQAAQNLRRG | 3.21 ± 0.81 | 2.4 ± 0.23 | 2.34 ± 0.34 | 2.938 ± 0.012 | 2.6 ± 0.53 | 2.48 ± 0.19 | 4.22 ± 0.071 | 6.91 ± 0.33 | 2.56 ± 0.063 | 3.593 ± 0.023 | 4.14 ± 0.21 | 6.88 ± 1.1
3 | MTITDLVLILFIAALLAFAIYDQFIMPRRNGPTLLAIPLLRRGRIDSVIFVGLIVILIYNNVTNHGALITTWLLSALALMGFYIFWIRVPKIIFKQKGFFFANVWIEYSRIKAMNLSEDGVLVMQLEQRRLLIRVRNIDDLEKIYKLLVSTQ | 7.14 | 7.25 | 6.58 | – | 6.13 ± 0.82 | 2.77 ± 0.15 | 4.79 | – | 5.6 | 8.94 | – | –
4 | MTIYTLSHGSLKLDVSDQGGVIEGFWRDTTPLLRPGKKSGVATDASCFPLVPFANRVSGNRFVWQGREYQLQPNVEWDAHYLHGDGWLGEWQCVSHSDDSLCLVYEHRSGVYHYRVSQAFHLTADTLTVTLSVTNQGAETLPFGTGWHPYFPLSPQTRIQAQASGYWLEREQWLAGEFCEQLPQELDFNQPAPLPRQWVNNGFAGWNGQARIEQPQEGYAIIMETTPPAPCYFIFVSDPAFDKGYAFDFFCLEPMSHAPDDHHRPEGGDLIALAPGESTTSEMSLRVEWL | 6.63 | – | – | – | – | 0.925 | – | 10.7 | – | – | 6.42 | 11.3 ± 0.92
5 | MTKHARFFLLPSFILISAALIAGCNDKGEEKAHVGEPQVTVHIVKTAPLEVKTELPGRTNAYRIAEVRPQVSGIVLNRNFTEGSDVQAGQSLYQIDPATYQANYDSAKGELAKSEAAAAIAHLTVKRYVPLVGTKYISQQEYDQAIADARQADAAVIAAKATVESARINLAYTKVTAPISGRIGKSTVTEGALVTNGQTTELATVQQLDPIYVDVTQSSNDFMRLKQSVEQGNLHKENATSNVELVMENGQTYPLKGTLQFSDVTVDESTGSITLRAVFPNPQHTLLPGMFVRARIDEGVQPDAILIPQQGVSRTPRGDATVLIVNDKSQVEARPVVASQAIGDKWLISEGLKSGDQVIVSGLQKARPGEQVKATTDTPADTASK | – | – | – | – | – | – | – | 13.2 | – | – | – | –
6 | MTKIIAVTACPSGVAHTYMAAEALESAAKAKGWEVKVETQGSIGLENELTAEDVASADMVILTKDIGIKFEERFAGKTIVRVNISDAVKRADAIMSKIEAHLAQTA | 4.85 ± 0.3 | 5.65 | – | – | – | – | – | 8.01 ± 8.9 | – | – | – | –
7 | MTKLKLLALGVLIATSAGVAHAEGKFSLGAGVGVVEHPYKDYDTDVYPVPVINYEGDNFWFRGLGGGYYLWNDATDKLSITAYWSPLYFKAKDSGDHQMRHLDDRKSTMMAGLSYAHFTQYGYLRTTLAGDTLDNSNGIVWDMAWLYRYTNGGLTVTPGIGVQWNSENQNEYYYGVSRKESARSGLRGYNPNDSWSPYLELSASYNFLGDWSVYGTARYTRLSDEVTDSPMVDKSWTGLISTGITYKF [P0A908] | 6.14 ± 1.1 | 7.17 ± 0.13 | 6.01 ± 1.1 | 6.05 ± 1 | 5.96 ± 0.079 | 2.55 ± 0.14 | 5.81 ± 0.46 | 13.6 ± 2.3 | 6.35 ± 0.63 | 14 ± 1.4 | 5.7 ± 0.23 | –
8 | MTKPYVRLDKNDAAVLLVDHQAGLLSLVRDIEPDKFKNNVLALGDLAKYFNLPTILTTSFETGPNGPLVPELKAQFPDTPYIARPGNINAWDNEDFVKAVKATGKKQLIIAGVVTEVCVAFPALSAIEEGFDVFVVTDASGTFNEITRHSAWDRLSQAGAQLMTWFGVACELHRDWRNDIEGLATLFSNHIPDYRNLMTSYDTLTKQK | 6.75 ± 1.6 | 5.73 ± 0.18 | 5.4 ± 0.7 | 5.666 ± 0.053 | 4.69 ± 0.19 | 3.0124 ± 0.0024 | – | 10.3 ± 1.9 | 5.17 ± 0.61 | 9.22 ± 0.33 | 5.84 ± 0.94 | 12.9 ± 1.1
9 | MTKQPPIAKADLQKTQGNRAPAAVKNSDVISFINQPSMKEQLAAALPRHMTAERMIRIATTEIRKVPALGNCDTMSFVSAIVQCSQLGLEPGSALGHAYLLPFGNKNEKSGKKNVQLIIGYRGMIDLARRSGQIASLSARVVREGDEFSFEFGLDEKLIHRPGENEDAPVTHVYAVARLKDGGTQFEVMTRKQIELVRSLSKAGNNGPWVTHWEEMAKKTAIRRLFKYLPVSIEIQRAVSMDEKEPLTIDPADSSVLTGEYSVIDNSEE | 5.151 ± 0.025 | – | 1.34 | – | – | 2.62 ± 0.65 | 3.79 ± 0.043 | 7.28 ± 0.72 | 1.57 | 3.39 | – | 4.09 ± 0.29

Source: the supplement of paper PMC11246515
